The values that follow come from patent US11597752B2, “Peptides and combination of peptides and scaffolds thereof for use in immunotherapy against colorectal carcinoma (CRC) and other cancers” (priority 2015, dated 2023).

This experiment deals with HLA-A*02:01 (Homo sapiens, UniProt P04439, D140Y/D185E/D98H/E176V/E277Q/G131W/G231S/I119V/I121R/I166T/I218V/L300P/L318F/N151K/N90K/P208A/P217A/Q86G/Q94H/R138H/R169H/T345S). The experiment is described as follows: MHC binding assay (UV-ligand exchange, beta2m ELISA, peptide exchange yield). Conditions: binding to HLA-A*02:01, β2m ELISA. From the text: Candidate peptides for T cell based therapies according to the present invention were further tested for their MHC binding capacity (affinity). The individual peptide-MHC complexes were produced by UV-ligand exchange, where a UV-sensitive peptide is cleaved upon UV-irradiation, and exchanged with the peptide of interest as analyzed. Only peptide candidates that can effectively bind and stabilize the peptide-receptive MHC molecules prevent dissociation of the MHC complexes. To determine the yield of the exchange reaction, an ELISA was performed based on the detection of the light chain (β2m) of stabilized MHC complexes. The assay was performed as generally described in Rodenko et al. (Rodenko et al., 2006).
96 well MAXISorp plates (NUNC) were coated over night with 2 ug/ml streptavidin in PBS at room temperature, washed 4× and blocked for 1 h at 37° C. in 2% BSA containing blocking buffer. Refolded HLA-A*02:01/MLA-001 monomers served as standards, covering the range of 15-500 ng/ml. Peptide-MHC monomers of the UV-exchange reaction were diluted 100 fold in blocking buffer. Samples were incubated for 1 h at 37° C., washed four times, incubated with 2 ug/ml HRP conjugated anti-β2m for 1 h at 37° C., washed again and detected with TMB solution that is stopped with […]. Absorption was measured at 450 nm. Candidate peptides that show a high exchange yield (preferably higher than 50%, most preferred higher than 75%) are generally preferred for a generation and production of antibodies or fragments thereof, and/or T cell receptors or fragments thereof, as they show sufficient avidity to the MHC molecules and prevent dissociation of the MHC complexes.
(In an ELISA, binding on a coated surface is turned into a signal by an enzyme label.)
On to “61 (KLLKLFQGV; listed as Homo sapiens) [compound 61]”, for which the “Peptide exchange (MHC class I binding score, peptide exchange yield)” value (from here on “Peptide exchange”) is reported as ““+++” (≥50 = +++)”. Next, “106 (SLISEKILL; listed as Homo sapiens) [compound 106]”: ““+++” (≥50 = +++)”. Next, “189 (AISEVIGKITA; listed as Homo sapiens) [compound 189]”: ““+++” (≥50 = +++)”; “110 (LLGELPRLLLL; listed as Homo sapiens) [compound 110]”: ““+++” (≥50 = +++)”; “169 (YLAHFIEGL; listed as Homo sapiens) [compound 169]”: ““+++” (≥50 = +++)”.

Consider “50 (TLMAEMHVV; listed as Homo sapiens) [compound 50]”, for which the “Peptide exchange” value is ““+++” (≥50 = +++)”. Next, “86 (KVFPGKISV; listed as Homo sapiens) [compound 86]”: ““++” (≥20% = ++)”; “162 (KLMDYIDEL; listed as Homo sapiens) [compound 162]”: ““+++” (≥50 = +++)”; “108 (SLAELVPGVGGI; listed as Homo sapiens) [compound 108]”: ““+++” (≥50 = +++)”. Next, “88 (KLDIKVETV; listed as Homo sapiens) [compound 88]”: ““++++” (≥75% = ++++)”; “152 (KLLAVIHEL; listed as Homo sapiens) [compound 152]”: ““++” (≥20% = ++)”; “151 (SAQGSDVSLTACKV; listed as Homo sapiens) [compound 151]”: ““+++” (≥50 = +++)”.

For “104 (ILLTIKDDTIYL; listed as Homo sapiens) [compound 104]”, the “Peptide exchange” value was ““+++” (≥50 = +++)”. Next, “80 (QVDEVVDIMRV; listed as Homo sapiens) [compound 80]”: ““++” (≥20% = ++)”. Next, “28 (ALTEIQEFI; listed as Homo sapiens) [compound 28]”: ““++++” (≥75% = ++++)”; “41 (ILDDSFKLL; listed as Homo sapiens) [compound 41]”: ““++” (≥20% = ++)”.

Take “158 (GLLDPSVFHV; listed as Homo sapiens) [compound 158]”: the “Peptide exchange” value is ““+++” (≥50 = +++)”. As for “116 (LVYQFVHPI; listed as Homo sapiens) [compound 116]”, the “Peptide exchange” value is listed as ““++” (≥20% = ++)”. Next, “112 (KLGQVLIYL; listed as Homo sapiens) [compound 112]”: ““++” (≥20% = ++)”; “171 (RLQETEGMVAV; listed as Homo sapiens) [compound 171]”: ““++” (≥20% = ++)”.

Consider “58 (AMADKMDMSL; listed as Homo sapiens) [compound 58]”, for which the “Peptide exchange” value is recorded as ““++” (≥20% = ++)”.

Take “128 (MLDDRAYLV; listed as Homo sapiens) [compound 128]”: the “Peptide exchange” value was ““++” (≥20% = ++)”. Then “168 (GLIRFPLMTI; listed as Homo sapiens) [compound 168]”, with ““+++” (≥50 = +++)”; and “155 (RLLGEEVVRV; listed as Homo sapiens) [compound 155]”, with ““+++” (≥50 = +++)”. Then “6 (FLAELPGSLSL; listed as Homo sapiens) [compound 6]”, with ““+++” (≥50 = +++)”; and “5 (WLFDDGGLTL; listed as Homo sapiens) [compound 5]”, with ““++++” (≥75% = ++++)”. Then “153 (ILFSEDSTKLFV; listed as Homo sapiens) [compound 153]”, with ““+++” (≥50 = +++)”. “154 (KLPSETIFVGC; listed as Homo sapiens) [compound 154]”: the “Peptide exchange” value was ““+++” (≥50 = +++)”. Then “147 (TLTELRAFL; listed as Homo sapiens) [compound 147]”, with ““++++” (≥75% = ++++)”; and “161 (FLKNELDNV; listed as Homo sapiens) [compound 161]”, with ““+++” (≥50 = +++)”; and “22 (GLIDEVMVL; listed as Homo sapiens) [compound 22]”, with ““+++” (≥50 = +++)”. Then “91 (TVDVATPSV; listed as Homo sapiens) [compound 91]”, with ““+++” (≥50 = +++)”. Then “156 (SLMMTIINL; listed as Homo sapiens) [compound 156]”, with ““++++” (≥75% = ++++)”; and “48 (FLDASDPAL; listed as Homo sapiens) [compound 48]”, with ““++” (≥20% = ++)”. Turning to “114 (TAVGHALVL; listed as Homo sapiens) [compound 114]”, the “Peptide exchange” value is ““+” (≥10% = +)”. Take “163 (RLLHEVQEL; listed as Homo sapiens) [compound 163]”: the “Peptide exchange” value is reported as ““+++” (≥50 = +++)”. For “24 (VLDGVLMEL; listed as Homo sapiens) [compound 24]”, the “Peptide exchange” value is given as ““+++” (≥50 = +++)”. “20 (YLKDGDVML; listed as Homo sapiens) [compound 20]”: the “Peptide exchange” value is reported as ““+++” (≥50 = +++)”. Then “103 (FLFGYPKRL; listed as Homo sapiens) [compound 103]”, with ““++” (≥20% = ++)”; and “134 (GVAGGSILKGV; listed as Homo sapiens) [compound 134]”, with ““++++” (≥75% = ++++)”; and “95 (AILDAHIEV; listed as Homo sapiens) [compound 95]”, with ““++++” (≥75% = ++++)”. For the substance “98 (AMNGKSFSV; listed as Homo sapiens) [compound 98]”, the “Peptide exchange” value was ““++” (≥20% = ++)”.

As to “96 (KLYSRLVYV; listed as Homo sapiens) [compound 96]”, the “Peptide exchange” value was ““++” (≥20% = ++)”. As to “135 (KLQEEIPVL; listed as Homo sapiens) [compound 135]”, the “Peptide exchange” value is reported as ““++” (≥20% = ++)”. Then “63 (KLFSILSTV; listed as Homo sapiens) [compound 63]”, with ““++” (≥20% = ++)”. Then “131 (KLLDVVHPA; listed as Homo sapiens) [compound 131]”, with ““++” (≥20% = ++)”; and “157 (SLIERDLKL; listed as Homo sapiens) [compound 157]”, with ““+++” (≥50 = +++)”; and “62 (YLAPENGYL; listed as Homo sapiens) [compound 62]”, with ““++” (≥20% = ++)”.

“187 (GLHNVVYGI; listed as Homo sapiens) [compound 187]”: the “Peptide exchange” value is given as ““+++” (≥50 = +++)”. Next, “138 (KQFEGTVEI; listed as Homo sapiens) [compound 138]”: ““+++” (≥50 = +++)”. Then “136 (KLFDIFSQQV; listed as Homo sapiens) [compound 136]”, with ““+++” (≥50 = +++)”; and “137 (QLTEIKPLL; listed as Homo sapiens) [compound 137]”, with ““+++” (≥50 = +++)”.

“105 (YALDLSTFL; listed as Homo sapiens) [compound 105]”: the “Peptide exchange” value is ““+++” (≥50 = +++)”. Then “184 (SLLDENNVSSYL; listed as Homo sapiens) [compound 184]”, with ““+++” (≥50 = +++)”. Next, “34 (ILLEKSVSV; listed as Homo sapiens) [compound 34]”: ““+++” (≥50 = +++)”; “129 (VLIDVLKEL; listed as Homo sapiens) [compound 129]”: ““+++” (≥50 = +++)”.
